In patent publication US20260132197A1 (NANJING LEGEND BIOTECH, published 2026):

B1: 108VH5.M20 / 108VL1.M5 (antibody, human IgG4 S228P, kappa, V domains shown)
VH: EVQLVQSGAEVKKPGASVKVSCKASGYTFTHHWMHWVRQAPGQGLEWMGMIDASDAETRYAQKFQGRVTMTRDTSTSTVYMELSSLRSEDTAVYYCARLGRYYFDYWGQGTLVTVSS
VL: EIVLTQSPATLSLSPGERATLSCRASQSVSSYLAWYQQKPGQAPRLLIYGASNRATGIPARFSGSGSGTDFTLTISSLEPEDFAVYYCGESYGHLYTFGGGTKVEIKR
notes: Full-length IgG4 (S228P), kappa; also called VH5.M20 VL1.M5
B2: 108VH5.M24 / 108VL1.M5 (antibody, human IgG4 S228P, kappa, V domains shown)
VH: EVQLVQSGAEVKKPGASVKVSCKASGYTFTHHWMHWVRQAPGQGLEWMGMIDASDLETRYAQKFQGRVTMTRDTSTSTVYMELSSLRSEDTAVYYCARLGRYYFDYWGQGTLVTVSS
VL: EIVLTQSPATLSLSPGERATLSCRASQSVSSYLAWYQQKPGQAPRLLIYGASNRATGIPARFSGSGSGTDFTLTISSLEPEDFAVYYCGESYGHLYTFGGGTKVEIKR
notes: Full-length IgG4 (S228P), kappa; also called VH5.M24 VL1.M5
B3: 108VH5.M26 / 108VL1.M5 (antibody, human IgG4 S228P, kappa, V domains shown)
VH: EVQLVQSGAEVKKPGASVKVSCKASGYTFTHHWMHWVRQAPGQGLEWMGMIDASDVETRYAQKFQGRVTMTRDTSTSTVYMELSSLRSEDTAVYYCARLGRYYFDYWGQGTLVTVSS
VL: EIVLTQSPATLSLSPGERATLSCRASQSVSSYLAWYQQKPGQAPRLLIYGASNRATGIPARFSGSGSGTDFTLTISSLEPEDFAVYYCGESYGHLYTFGGGTKVEIKR
notes: Full-length IgG4 (S228P), kappa; also called VH5.M26 VL1.M5
B4: 108VH10.Mg / 108VL10.Me (antibody, V domains shown)
VH: EVQLVESGGGLVQPGGSLRLSCAASGFTFSHHWIHWVRQAPGKGLEWVAMIDASDSETRLSQKFKDRFTISADTSKNTAYLQMNSLRAEDTAVYYCSRLGRYYFDYWGQGTLVTVSS
VL: DIQMTQSPSSLSASVGDRVTITCRASQSISSYLNWYQQKPGKAPKLLIYGASSRYSGVPSRFSGSRSGTDFTLTISSLQPEDFATYYCGESYGHLYTFGQGTKVEIK
notes: 4D5-framework series; constant regions not restated for this series; also called VH10.Mg VL10.Me
B5: 108VH10.Mb / 108VL10.M1 (antibody, V domains shown)
VH: EVQLVESGGGLVQPGGSLRLSCAASGYSFTHHWMHWVRQAPGKGLEWVAMIDPSDSETRLSQKFKDRFTISADTSKNTAYLQMNSLRAEDTAVYYCSRLGRYYFDYWGQGTLVTVSS
VL: DIQMTQSPSSLSASVGDRVTITCRASENVGTYISWYQQKPGKAPKLLIYGASNRYTGVPSRFSGSRSGTDFTLTISSLQPEDFATYYCGESYGHLYTFGQGTKVEIK
notes: 4D5-framework series; constant regions not restated for this series; also called VH10.Mb VL10.M1
B6: 108VH10.Me / 108VL10.M1 (antibody, V domains shown)
VH: EVQLVESGGGLVQPGGSLRLSCAASGYSFTHHWIHWVRQAPGKGLEWVAMIDQSDSETRLSQKFKDRFTISADTSKNTAYLQMNSLRAEDTAVYYCSRLGRYYFDYWGQGTLVTVSS
VL: DIQMTQSPSSLSASVGDRVTITCRASENVGTYISWYQQKPGKAPKLLIYGASNRYTGVPSRFSGSRSGTDFTLTISSLQPEDFATYYCGESYGHLYTFGQGTKVEIK
notes: 4D5-framework series; constant regions not restated for this series; Pro53 replaced with Gln; also called VH10.Me VL10.M1
B7: 108VH10.Md / 108VL10.M1 (antibody, V domains shown)
VH: EVQLVESGGGLVQPGGSLRLSCAASGYSFTHHWIHWVRQAPGKGLEWVAMIKPSDSETRLSQKFKDRFTISADTSKNTAYLQMNSLRAEDTAVYYCSRLGRYYFDYWGQGTLVTVSS
VL: DIQMTQSPSSLSASVGDRVTITCRASENVGTYISWYQQKPGKAPKLLIYGASNRYTGVPSRFSGSRSGTDFTLTISSLQPEDFATYYCGESYGHLYTFGQGTKVEIK
notes: 4D5-framework series; constant regions not restated for this series; Asp52 replaced with Lys; also called VH10.Md VL10.M1
B8: 108VH10 / 108VL10.Md (antibody, V domains shown)
VH: EVQLVESGGGLVQPGGSLRLSCAASGYSFTHHWIHWVRQAPGKGLEWVAMIDPSDSETRLSQKFKDRFTISADTSKNTAYLQMNSLRAEDTAVYYCSRLGRYYFDYWGQGTLVTVSS
VL: DIQMTQSPSSLSASVGDRVTITCRASENVGTYISWYQQKPGKAPKLLIYGASNRYSGVPSRFSGSRSGTDFTLTISSLQPEDFATYYCGESYGHLYTFGQGTKVEIK
notes: 4D5-framework series; constant regions not restated for this series; also called VH10 VL10.Md
B9: 108VH10.Ml / 108VL10.Me (antibody, V domains shown)
VH: EVQLVESGGGLVQPGGSLRLSCAASGFTFSHHWIHWVRQAPGKGLEWVAMIDASDSETRLSQKFKGRFTISADTSKNTAYLQMNSLRAEDTAVYYCSRLGRYYFDYWGQGTLVTVSS
VL: DIQMTQSPSSLSASVGDRVTITCRASQSISSYLNWYQQKPGKAPKLLIYGASSRYSGVPSRFSGSRSGTDFTLTISSLQPEDFATYYCGESYGHLYTFGQGTKVEIK
notes: 4D5-framework series; constant regions not restated for this series; also called VH10.Ml VL10.Me
B10: 108VH10 / 108VL10.Ma (antibody, V domains shown)
VH: EVQLVESGGGLVQPGGSLRLSCAASGYSFTHHWIHWVRQAPGKGLEWVAMIDPSDSETRLSQKFKDRFTISADTSKNTAYLQMNSLRAEDTAVYYCSRLGRYYFDYWGQGTLVTVSS
VL: DIQMTQSPSSLSASVGDRVTITCRASQSISSYLNWYQQKPGKAPKLLIYGASNRYTGVPSRFSGSRSGTDFTLTISSLQPEDFATYYCGESYGHLYTFGQGTKVEIK
notes: 4D5-framework series; constant regions not restated for this series; also called VH10 VL10.Ma
B11: 108VH10 / 108VL10.Mc (antibody, V domains shown)
VH: EVQLVESGGGLVQPGGSLRLSCAASGYSFTHHWIHWVRQAPGKGLEWVAMIDPSDSETRLSQKFKDRFTISADTSKNTAYLQMNSLRAEDTAVYYCSRLGRYYFDYWGQGTLVTVSS
VL: DIQMTQSPSSLSASVGDRVTITCRASENVGTYISWYQQKPGKAPKLLIYGASSRYTGVPSRFSGSRSGTDFTLTISSLQPEDFATYYCGESYGHLYTFGQGTKVEIK
notes: 4D5-framework series; constant regions not restated for this series; also called VH10 VL10.Mc
B12: 108VH10.Mi / 108VL10.Me (antibody, V domains shown)
VH: EVQLVESGGGLVQPGGSLRLSCAASGFTFSHHWIHWVRQAPGKGLEWVAMIDASDSETRLSDKFKDRFTISADTSKNTAYLQMNSLRAEDTAVYYCSRLGRYYFDYWGQGTLVTVSS
VL: DIQMTQSPSSLSASVGDRVTITCRASQSISSYLNWYQQKPGKAPKLLIYGASSRYSGVPSRFSGSRSGTDFTLTISSLQPEDFATYYCGESYGHLYTFGQGTKVEIK
notes: 4D5-framework series; constant regions not restated for this series; also called VH10.Mi VL10.Me
B13: 108VH10.Ma / 108VL10.M1 (antibody, V domains shown)
VH: EVQLVESGGGLVQPGGSLRLSCAASGFTFSHHWIHWVRQAPGKGLEWVAMIDPSDSETRLSQKFKDRFTISADTSKNTAYLQMNSLRAEDTAVYYCSRLGRYYFDYWGQGTLVTVSS
VL: DIQMTQSPSSLSASVGDRVTITCRASENVGTYISWYQQKPGKAPKLLIYGASNRYTGVPSRFSGSRSGTDFTLTISSLQPEDFATYYCGESYGHLYTFGQGTKVEIK
notes: 4D5-framework series; constant regions not restated for this series; also called VH10.Ma VL10.M1
B14: 108VH10.Mj / 108VL10.Me (antibody, V domains shown)
VH: EVQLVESGGGLVQPGGSLRLSCAASGFTFSHHWIHWVRQAPGKGLEWVAMIDASDSETRLSQSFKDRFTISADTSKNTAYLQMNSLRAEDTAVYYCSRLGRYYFDYWGQGTLVTVSS
VL: DIQMTQSPSSLSASVGDRVTITCRASQSISSYLNWYQQKPGKAPKLLIYGASSRYSGVPSRFSGSRSGTDFTLTISSLQPEDFATYYCGESYGHLYTFGQGTKVEIK
notes: 4D5-framework series; constant regions not restated for this series; also called VH10.Mj VL10.Me
B15: 108VH10.Mh / 108VL10.Me (antibody, V domains shown)
VH: EVQLVESGGGLVQPGGSLRLSCAASGFTFSHHWIHWVRQAPGKGLEWVAMIDASDSETRLVQKFKDRFTISADTSKNTAYLQMNSLRAEDTAVYYCSRLGRYYFDYWGQGTLVTVSS
VL: DIQMTQSPSSLSASVGDRVTITCRASQSISSYLNWYQQKPGKAPKLLIYGASSRYSGVPSRFSGSRSGTDFTLTISSLQPEDFATYYCGESYGHLYTFGQGTKVEIK
notes: 4D5-framework series; constant regions not restated for this series; also called VH10.Mh VL10.Me

Experiments:
[1] = biological target: T1, wild type human CD47 (Acro Biosystems, cat. no. CD7-H5227) (human, UniProt Q08722 19-139); experiment: SPR, IgG captured, CD47 in flow; exp 4;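 further: biacore T200 SPR using IgG from transfected HEK293 supernatants against wild-type human CD47 or its C33G mutein, rates fitted to association and dissociation curves, KD estimated from them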
T1 construct: Bought protein used as SPR analyte; also called Human CD47 wt; wild-type CD47

[2] = biological target: T2, Human CD47-C33G (human, UniProt Q08722 19-135); experiment: SPR, IgG captured, CD47 in flow; exp 4;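 further: biacore T200 SPR using IgG from transfected HEK293 supernatants against wild-type human CD47 or its C33G mutein, rates fitted to association and dissociation curves, KD estimated from them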
T2 construct: also called CD47 mutein with C33G mutation

[3] = biological target: T3, human CD47 on cells (SHP-77 tumor cells, human red blood cells, CCRF-CEM cells, human CD47 CHO-K1 stable cell … (human, UniProt Q08722 19-323)); experiment: flow cytometry on human RBCs;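 further: antibody binding measured by flow cytometry as geometric mean fluorescence intensity over a range of antibody concentrations, with EC50 and maximum taken from a sigmoidal dose-response fit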
T3 construct: whole, on cells; also called RBC

[4] = biological target: T3, human CD47 on cells (SHP-77 tumor …); experiment: flow cytometry on SHP-77 cells
[5] = biological target: T1, wild type human CD47 (Acro Biosystems, …); experiment: SPR, IgG captured, CD47 in flow; exp 3;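 further: other target is a CD47 mutein carrying C33G, used to obtain true monovalent affinity, with kon and koff fitted from SPR binding curves and KD derived from both rates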
[6] = biological target: T2, Human CD47-C33G; experiment: SPR, IgG captured, CD47 in flow; exp 3;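 further: other target is a CD47 mutein carrying C33G, used to obtain true monovalent affinity, with kon and koff fitted from SPR binding curves and KD derived from both rates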
[7] = biological target: T1, wild type human CD47 (Acro Biosystems, …); experiment: SPR, IgG captured, CD47 in flow; exp 2;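 further: rates derived from association and dissociation curves, KD estimated from them, C33G mutein used to avoid CD47 IgV homodimers for true monovalent affinity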
[8] = biological target: T2, Human CD47-C33G; experiment: SPR, IgG captured, CD47 in flow; exp 2;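 further: rates derived from association and dissociation curves, KD estimated from them, C33G mutein used to avoid CD47 IgV homodimers for true monovalent affinity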

Binder | Kd [5] [nM] | koff [5] [s⁻¹] | kon [5] [M⁻¹ s⁻¹] | Kd [6] [nM] | koff [6] [s⁻¹] | kon [6] [M⁻¹ s⁻¹] | Kd [7] [nM] | koff [7] [s⁻¹] | kon [7] [M⁻¹ s⁻¹] | Kd [8] [nM] | koff [8] [s⁻¹] | kon [8] [M⁻¹ s⁻¹] | further results
B1 | – | – | – | – | – | – | – | – | – | – | – | – | Kd [1]: 3 nM; koff [1]: 0.0022 s⁻¹; kon [1]: 710000 M⁻¹ s⁻¹; Kd [2]: 15 nM; koff [2]: 0.0045 s⁻¹; kon [2]: 310000 M⁻¹ s⁻¹
B2 | – | – | – | – | – | – | – | – | – | – | – | – | EC50 [3]: 4 nM; Fitted Maximal MFI [3]: 29200 MFI; EC50 [4]: 9.8 nM; Fitted Maximal MFI [4]: 38700 MFI; Kd [1]: 5.7 nM; koff [1]: 0.003 s⁻¹; kon [1]: 520000 M⁻¹ s⁻¹; Kd [2]: 31 nM; koff [2]: 0.0067 s⁻¹; kon [2]: 220000 M⁻¹ s⁻¹
B3 | – | – | – | – | – | – | – | – | – | – | – | – | Kd [1]: 4.6 nM; koff [1]: 0.0026 s⁻¹; kon [1]: 570000 M⁻¹ s⁻¹; Kd [2]: 23 nM; koff [2]: 0.0054 s⁻¹; kon [2]: 240000 M⁻¹ s⁻¹
B4 | 4.8 | 0.0032 | 680000 | 31 | 0.0072 | 230000 | – | – | – | – | – | – | –
B5 | – | – | – | – | – | – | 6.5 | 0.0016 | 240000 | 39 | 0.0035 | 89000 | –
B6 | – | – | – | – | – | – | 53 | 0.0027 | 52000 | – | – | – | –
B7 | – | – | – | – | – | – | – | – | – | – | – | – | binding result [8]: no binding (tested: 2.5 nM to 1.28 µM of antigen tested)
B8 | – | – | – | – | – | – | 7.1 | 0.0016 | 230000 | 42 | 0.0036 | 86000 | –
B9 | 5.6 | 0.0034 | 610000 | 36 | 0.0073 | 200000 | – | – | – | – | – | – | –
B10 | – | – | – | – | – | – | 1.4 | 0.0015 | 1e+06 | 8 | 0.0029 | 360000 | –
B11 | – | – | – | – | – | – | 10 | 0.002 | 190000 | 64 | 0.0044 | 69000 | –
B12 | 5.2 | 0.0034 | 640000 | 38 | 0.0087 | 230000 | – | – | – | – | – | – | –
B13 | – | – | – | – | – | – | 8.7 | 0.002 | 230000 | 57 | 0.0046 | 82000 | –
B14 | 5.8 | 0.0035 | 610000 | 38 | 0.0078 | 210000 | – | – | – | – | – | – | –
B15 | 17 | 0.0066 | 380000 | 160 | 0.013 | 79000 | – | – | – | – | – | – | –
